Consider two molecules from publication PMC7435230, “Selection of a Full Agonist Combinatorial Antibody that Rescues Leptin Deficiency In Vivo” (Advanced Science, 2020).

The target of assay [1] is human leptin receptor tagged with eYFP, on HEK293 cells (Homo sapiens, UniProt P48357). The assay is described as follows: cell-based or functional assay.
For assay [2], the target named is T1, extracellular domain of human leptin receptor with C-terminal human-Fc tag (human, UniProt P48357 22-839).
T1 chain: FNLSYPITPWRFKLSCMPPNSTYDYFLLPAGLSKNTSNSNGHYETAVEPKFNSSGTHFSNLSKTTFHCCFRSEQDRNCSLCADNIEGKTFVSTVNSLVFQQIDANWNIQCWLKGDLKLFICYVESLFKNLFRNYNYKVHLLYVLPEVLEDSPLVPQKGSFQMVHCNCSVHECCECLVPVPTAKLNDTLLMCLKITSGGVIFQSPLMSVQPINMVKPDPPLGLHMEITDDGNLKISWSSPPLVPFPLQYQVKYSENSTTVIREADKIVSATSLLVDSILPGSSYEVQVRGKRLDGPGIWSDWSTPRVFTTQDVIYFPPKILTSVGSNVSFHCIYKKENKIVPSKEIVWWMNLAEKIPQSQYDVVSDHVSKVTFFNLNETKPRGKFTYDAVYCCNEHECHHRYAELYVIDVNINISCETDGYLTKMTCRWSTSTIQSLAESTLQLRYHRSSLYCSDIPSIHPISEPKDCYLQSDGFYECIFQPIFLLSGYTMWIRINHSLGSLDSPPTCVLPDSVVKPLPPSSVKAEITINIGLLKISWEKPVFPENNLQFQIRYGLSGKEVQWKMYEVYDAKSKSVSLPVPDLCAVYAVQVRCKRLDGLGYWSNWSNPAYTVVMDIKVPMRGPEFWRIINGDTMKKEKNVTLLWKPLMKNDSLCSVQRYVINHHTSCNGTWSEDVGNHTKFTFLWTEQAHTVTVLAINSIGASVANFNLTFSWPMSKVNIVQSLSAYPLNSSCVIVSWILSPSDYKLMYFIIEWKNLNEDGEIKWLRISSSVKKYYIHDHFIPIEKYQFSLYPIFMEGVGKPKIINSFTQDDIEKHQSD
Kind of assay: ELISA; competition with coated leptin, 20 nM hLepR-ECD-Fc.

For assay [3], the target named is T2, mLepR in mouse brain tissue sections (paraventricular nucleus of the hypothalamus) (Mus musculus, C57BL/6 (wild type, …, UniProt P48356)).
T2 construct: leptin receptor (LepR), mouse, endogenous in hypothalamus; Fixed tissue sections; also called LepR in tissue; source: endogenous, brain sections of wild type, ob/ob and db/db C57BL/6 mice
T2 sequence (P48356 22-839): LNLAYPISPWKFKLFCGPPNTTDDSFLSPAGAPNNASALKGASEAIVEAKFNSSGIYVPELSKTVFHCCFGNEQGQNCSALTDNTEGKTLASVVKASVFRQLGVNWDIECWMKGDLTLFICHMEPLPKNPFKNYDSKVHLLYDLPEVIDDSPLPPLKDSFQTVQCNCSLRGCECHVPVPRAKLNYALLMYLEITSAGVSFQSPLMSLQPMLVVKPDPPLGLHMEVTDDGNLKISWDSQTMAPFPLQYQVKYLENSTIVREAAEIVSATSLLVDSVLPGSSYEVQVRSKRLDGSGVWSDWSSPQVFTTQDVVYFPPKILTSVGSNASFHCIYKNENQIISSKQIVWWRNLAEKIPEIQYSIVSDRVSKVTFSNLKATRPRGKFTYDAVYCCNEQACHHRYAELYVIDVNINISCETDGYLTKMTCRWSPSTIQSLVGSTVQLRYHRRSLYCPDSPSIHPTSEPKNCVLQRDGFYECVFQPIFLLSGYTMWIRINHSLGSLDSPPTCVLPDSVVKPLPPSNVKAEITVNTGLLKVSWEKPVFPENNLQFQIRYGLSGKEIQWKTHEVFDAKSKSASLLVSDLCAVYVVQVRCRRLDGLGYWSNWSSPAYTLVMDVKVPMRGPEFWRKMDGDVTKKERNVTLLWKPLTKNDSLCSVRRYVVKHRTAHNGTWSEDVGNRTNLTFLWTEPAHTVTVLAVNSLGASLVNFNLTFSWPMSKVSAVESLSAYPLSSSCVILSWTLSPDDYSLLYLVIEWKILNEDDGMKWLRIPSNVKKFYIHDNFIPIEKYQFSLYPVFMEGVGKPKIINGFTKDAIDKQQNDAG
Kind of assay: immunostaining of cells or tissue; 30 um brain sections of wild type, ob/ob and db/db mice, fixed in 4% PFA; staining as for cells; paraventricular nucleus of the hypothalamus. To be noted: one partner purified.

Assay [4] addresses T3, mouse leptin receptor tagged with eYFP, on HEK293 cells (Mus musculus, UniProt P48356).
T3 construct: leptin receptor (LepR), mouse; also called mLepR-eYFP; mLepR; source: HEK293, transiently transfected, on cells (fixed); not shown: eYFP, C-terminal, kept
Kind of assay: immunostaining of cells or tissue; transiently transfected HEK293 cells expressing LepR-eYFP, fixed in 4% PFA; primary antibodies 5 ug/mL at 4 C overnight; Alexa Fluor 555 goat anti-human IgG. To be noted: one partner purified.

Assay [5] has as its target T4, extracellular domain of human leptin receptor with C-terminal 6xHis tag (human, UniProt P48357).
T4 construct: leptin receptor (LepR), human, extracellular domain; also called hLepR-ECD; hLepR-ECD-His; source: HEK293F, purified from supernatant (HisTrap FF Crude); not shown: 6xHis, C-terminal, kept
Kind of assay: SPR; Biacore T200; LepR-ECD with His tag immobilised on CM5 chip by amine coupling; leptin-Fc and scFv-Fc antibodies in PBS pH 7.4, 1:2 serial dilutions, five concentrations, as analytes; 1:1 binding model. To be noted: both partners purified.

In assay [6] the target is T5, extracellular domain of mouse leptin receptor with C-terminal 6xHis tag (mouse, UniProt P48356).
T5 construct: leptin receptor (LepR), mouse, extracellular domain; also called mLepR-ECD; mLepR-ECD-His; source: HEK293F, purified from supernatant (HisTrap FF Crude); not shown: 6xHis, C-terminal, kept
T5 sequence (P48356 22-839): as above
The assay is described as above. To be noted: both partners purified.

Numbering of substitutions follows the chain as printed.

T3 sequence (P48356 22-1162): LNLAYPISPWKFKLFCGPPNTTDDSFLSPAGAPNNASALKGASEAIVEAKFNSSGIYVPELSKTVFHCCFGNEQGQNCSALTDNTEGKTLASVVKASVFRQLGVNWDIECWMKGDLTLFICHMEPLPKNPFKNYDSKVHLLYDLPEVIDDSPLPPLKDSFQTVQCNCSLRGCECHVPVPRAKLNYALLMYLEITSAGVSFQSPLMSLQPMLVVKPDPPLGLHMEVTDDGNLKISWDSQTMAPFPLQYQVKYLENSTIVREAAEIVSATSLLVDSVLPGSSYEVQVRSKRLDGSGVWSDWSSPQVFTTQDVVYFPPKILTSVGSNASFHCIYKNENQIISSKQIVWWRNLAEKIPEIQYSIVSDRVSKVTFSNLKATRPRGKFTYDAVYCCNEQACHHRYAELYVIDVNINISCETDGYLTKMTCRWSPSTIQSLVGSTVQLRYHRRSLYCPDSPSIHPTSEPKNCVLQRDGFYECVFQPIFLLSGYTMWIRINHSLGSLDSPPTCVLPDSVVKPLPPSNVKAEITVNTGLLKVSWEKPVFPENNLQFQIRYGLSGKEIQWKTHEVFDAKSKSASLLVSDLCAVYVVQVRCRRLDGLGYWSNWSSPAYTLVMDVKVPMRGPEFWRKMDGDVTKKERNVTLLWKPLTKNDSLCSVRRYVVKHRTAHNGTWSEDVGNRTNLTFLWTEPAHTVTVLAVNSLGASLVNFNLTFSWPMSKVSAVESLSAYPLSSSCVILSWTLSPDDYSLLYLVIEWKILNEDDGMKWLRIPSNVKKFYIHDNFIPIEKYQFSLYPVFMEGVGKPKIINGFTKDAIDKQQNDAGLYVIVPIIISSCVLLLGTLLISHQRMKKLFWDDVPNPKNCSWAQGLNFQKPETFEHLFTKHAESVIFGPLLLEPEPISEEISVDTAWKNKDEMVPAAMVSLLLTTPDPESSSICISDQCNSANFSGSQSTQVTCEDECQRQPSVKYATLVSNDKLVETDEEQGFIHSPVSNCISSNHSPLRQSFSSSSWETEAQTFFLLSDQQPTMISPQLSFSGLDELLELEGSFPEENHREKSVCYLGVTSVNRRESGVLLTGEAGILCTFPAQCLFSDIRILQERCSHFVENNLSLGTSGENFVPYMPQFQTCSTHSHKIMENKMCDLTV

B1: single-chain combinatorial antibody Ab06 (scFv-Fc) (scFv, V domains shown)
VH: QVQLVESGGGVVQPGRSLRLSCAASGFTFSSYGMHWVRQAPGKGLEWVAVISYDGSNKYYADSVKGRFTISRDNSKNTLYLQMNSLRAEDTAVYYCAKSLRNSFDYWGQGTLVTVSS
VL: EIVLTQSPGTLSLSPGERATLSCRASQSVSSNYLAWYQQKPGQAPRLLIYGASSRPTGIPDRFSGSGSGTDFTLTISRLEPEDFAVYYCQQYAASPLTFGGGTKLEIK
notes: identical to Ab11 except four residues in CDR3H; source: HEK293F, purified from supernatant (HiTrap Protein A)
For B1, the “EC50, hLepR-luciferase (SIE luciferase reporter of STAT3 phosphorylation, HEK293)” value in assay [1] turned out to be 3.2 nM. In addition, in assay [2], the IC50 is 40 nM. Besides, in assay [3], the binding result is listed as “no binding”. Besides, the binding result in assay [4] is on record as “no binding (tested: 5 ug/mL)”. In assay [5], this molecule registered a Kd of 7.5 nM, a koff of 0.052 s⁻¹ and a kon of 6.9e+06 M⁻¹ s⁻¹.

B2: single-chain combinatorial antibody Ab11 (scFv-Fc) (scFv, V domains shown)
VH: B1 VH with S99G, L100Y, R101E, S103Y
VL: B1 VL
notes: CDR3H holds the motif ENYF; source: HEK293F, purified from supernatant (HiTrap Protein A)
Molecule B2 showed a Kd in assay [6] of 200 nM.
